Results on one molecule are retold here after patent US20140315799A1 (J DAVID GLADSTONE INSTITUTES, published 2014).

The target in the assay is T1, endogenous p75^NTR in 3T3L1 adipocytes (mouse, UniProt Q9Z0W1 32-427).
T1 construct: whole, on cells
T1 sequence (looked up): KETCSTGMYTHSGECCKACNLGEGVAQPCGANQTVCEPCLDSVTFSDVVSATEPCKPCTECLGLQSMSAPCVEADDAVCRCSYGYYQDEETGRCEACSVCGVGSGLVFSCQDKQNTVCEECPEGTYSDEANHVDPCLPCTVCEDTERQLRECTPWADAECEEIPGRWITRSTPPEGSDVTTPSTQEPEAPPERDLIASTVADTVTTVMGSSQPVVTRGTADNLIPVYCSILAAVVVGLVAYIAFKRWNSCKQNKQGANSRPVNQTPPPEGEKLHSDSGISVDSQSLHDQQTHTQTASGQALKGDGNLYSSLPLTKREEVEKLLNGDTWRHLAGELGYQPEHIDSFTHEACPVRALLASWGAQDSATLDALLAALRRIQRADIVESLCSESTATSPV
In words: endogenous co-IP from 3T3L1 adipocytes (anti-p75NTR IP, anti-Rab31 blot).

Description: Briefly, cell lysates were prepared in 1% Nonidet P-40 (NP-40; non-ionic detergent), 200 mM NaCl, 1 mM EDTA, and 20 mM Tris-HCl, pH 8.0. Immunoprecipitations (IPs) were performed with an anti-p75^NTR antibody and immunoblot with anti-Rab31 and anti-p75^NTR.
(C) Immunoprecipitation of p75^NTR with Rab31 and Rab5 in 3T3L1 adipocytes stimulated with insulin. Lysates were immunoprecipitated with anti-p75^NTR antibody, and western blots were developed with anti-Rab31 and anti-Rab5 antibodies.

B1: endogenous Rab31 in 3T3L1 adipocytes (enzyme, UniProt Q921E2 1-195, looked up)
chain: MMAIRELKVCLLGDTGVGKSSIVCRFVQDHFDHNISPTIGASFMTKTVPCGNELHKFLIWDTAGQERFHSLAPMYYRGSAAAVIVYDITKQDSFHTLKKWVKELKEHGPENIVMAIAGNKCDLSDIREVPLKDAKEYAESIGAIVVETSAKNAINIEELFQGISRQIPPLGPQENGNSGGIKLGNQSLQASRRCC
For B1, the binding result is on record as “binds”.
